In publication doi:10.1101/2021.05.26.445185:
pKd: −log10 of the molar value.

Tests used:
Test in all cases: single-molecule FRET
Details in all cases: 5' m7GpppAm cap named for viral RNA; 3' poly(A) of unstated length
Cy5-eIF4E (Homo sapiens) = test system: Cy5-eIF4E (Homo sapiens)
[1] = test system: Cy5-eIF4E(S209D) (Homo sapiens)
[2] = molecular target: Cy5-eIF4E(S209D);eIF4G(557-1137);eIF4A (Homo sapiens;Homo sapiens;Homo sapiens) (UniProt Q04637)
[3] = molecular target: Cy5-eIF4E;eIF4G(557-1137);eIF4A (Homo sapiens;Homo sapiens;Homo sapiens) (UniProt Q04637)

## capped polyadenylated SARS-CoV-2 5' UTR
Cy5-eIF4E (Homo sapiens)
  pKd: 7.13
[1]
  pKd: 7.21
[2]
  pKd: 7.11
[3]
  pKd: 6.90
